Laboratory results taken from US20030203372A1, “Analysis method” (priority 2000, published 2003).

Tests used:
[1] = test system: primary human cell cultures (11 cell types); assay: Custom gene array, 11 human cell types in normoxia or hypoxia for 6 hr and 18 hr; type: cell-based;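 for mRNA expression level, #1 HY 18 hr: cell type #1 is adipocyte from subcutaneous adult adipose tissue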;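 for mRNA expression level, #1 HY 6 hr: cell type #1 is adipocyte from subcutaneous adult adipose tissue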;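 for mRNA expression level, #1 NO: cell type #1 is adipocyte from subcutaneous adult adipose tissue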;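 for mRNA expression level, #2 HY 18 hr: cell type #2 is fetal cardiomyocyte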;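 for mRNA expression level, #2 HY 6 hr: cell type #2 is fetal cardiomyocyte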;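 for mRNA expression level, #2 NO: cell type #2 is fetal cardiomyocyte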;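 for mRNA expression level, #3 HY 6 hr: cell type #3 is human umbilical vein endothelial cells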;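 for mRNA expression level, #3 NO: cell type #3 is human umbilical vein endothelial cells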;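 for mRNA expression level, #4 HY 18 hr: cell type #4 is adult dermal fibroblast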;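 for mRNA expression level, #4 HY 6 hr: cell type #4 is adult dermal fibroblast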;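 for mRNA expression level, #4 NO: cell type #4 is adult dermal fibroblast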;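 for mRNA expression level, #5 HY 6 hr: cell type #5 is adult hepatocyte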;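 for mRNA expression level, #5 NO: cell type #5 is adult hepatocyte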;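 for mRNA expression level, #6 HY 6 hr: cell type #6 is blood-derived macrophage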;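 for mRNA expression level, #6 NO: cell type #6 is blood-derived macrophage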
Experimental: Equivalent cultures of non-immortalized, non-transformed primary human cells of 10 distinct types, were cultured in either normoxia or were exposed to hypoxia for 6 hr and 18 hr, and gene expression changes were determined. […] Moreover, unlike the vast majority of information in the public domain relating to genes responsive to hypoxia, all of these cells were human and were cultured without any modifications following isolation from the human donors.
A non-primary cell type (#9) was used to represent neurons, since primary human neurons are difficult to source. Therefore a total of 11 cell types are compared. It should be noted that RNA from hepatocytes at the […] timepoint of hypoxia was not available for this work.
Each RNA sample was hybridised to duplicate or triplicate arrays, to ensure reproducible data, and was analysed using GeneSpring software. Data from replicate arrays were merged during analysis to generate mean values. Data normalisation was achieved per-array using the aforementioned list of control genes, such that differences in RNA labelling or hybridization due to experimental variation were corrected by referencing each gene to the mean value of the reference genes on the same array. Also, for each gene, expression values were obtained which represent the value in each experimental condition (e.g. macrophages 6 hr hypoxia) as compared to the median of value of that gene throughout the full range of experimental conditions (i.e. from all cell types). […] This is common in microarray data analysis.

[2] = test system: human breast and ovary tumors; assay: Custom gene array, breast and ovary tumors versus normal adjacent tissue; conditions: for gene expression level on custom gene array, Breast nor H / gene expression level on custom gene array, Breast nor K / gene expression level on custom gene array, Ovary nor E / gene expression level on custom gene array, Ovary nor F / gene expression level on custom gene array, Ovary nor G: normal adjacent tissue; for gene expression level on custom gene array, Breast nor H / gene expression level on custom gene array, Breast tum H: patient H; for gene expression level on custom gene array, Breast nor K / gene expression level on custom gene array, Breast tum K: patient K; for gene expression level on custom gene array, Breast tum H / gene expression level on custom gene array, Breast tum K / gene expression level on custom gene array, Ovary tum E / gene expression level on custom gene array, Ovary tum F / gene expression level on custom gene array, Ovary tum G: tumor tissue; for gene expression level on custom gene array, Ovary nor E / gene expression level on custom gene array, Ovary tum E: patient E; for gene expression level on custom gene array, Ovary nor F / gene expression level on custom gene array, Ovary tum F: patient F; for gene expression level on custom gene array, Ovary nor G / gene expression level on custom gene array, Ovary tum G: patient G
Text: A study has been performed to examine the expression of these genes in a selection of breast and ovary tumors, comparing expression with normal adjacent tissue from the same patient. There is expected to be a large degree of variation between different patients, and the study here contains only 5 patients with a range of diagnoses.
Patients are designated as Letters:
E: person. Diagnosis: ovarian adenocarcinoma. Normal ovarian tissue derived from an age-matched separate individual.
: person. Diagnosis: poorly differentiated adenocarcinoma. Normal ovarian tissue derived from the same individual.
G: person. Diagnosis: moderately-differentiated adenocarcinoma. Normal ovarian tissue derived from the same individual.
H: person. Diagnosis: invasive ductal carcinoma. Normnal breast tissue derived from the same individual.
K: person. Diagnosis: invasive ductal carcinoma. Normal breast tissue derived from the same individual.
Data normalisation was done per-chip to correct for differences in labelling and hybridization efficiency. Per-gene normalisation was done such that the expression values of each gene are relative to the median value of that gene throughout the series of samples. By comparing the expression values under normal (nor) and tumor (turn) for a single patient, differences in expression between the normal and malignant tissue of that patient can be inferred.

B1: p1E19 (nucleic acid, listed as Homo Sapiens)
DNA: TTTTTTTTCCTAGTTTCATTAAAGATGGAGTTCATATTTGTTTCTCATATTAATTTTTAAGACAAAAAAAAGCAGAACTGTTTTCACCCATTAAGTTAAAAACTGGAATTTTACCTTTCCAAACTTATTTCCTACCTTGCCCCTTTTCATGTTAATACCATGAACTATTCAGTAATTCTCTTCAAGCTCCATAATTTCCTACTTTCTACTTTTGCTCATTATTTCCATTCCAAGGGAAAGTTCTGTGTGCGTGTCTATTTCTATGTTCAAATTACACCTGTAAGATCCAACTCACAGGGCCATTGCCCTCTAGGGGTCTCTCCTGGATCCACTTCAACAGGAGGTAATTTTATCTNCACCGGATACCATTTCCTCCTTGGACACTTACCTCTTTTANGGGGACTCCCGAGGGTTGAGGGGGNG
modifications: EST array clone; misc_feature 356, 397, 422: n = A,T,C or G
mRNA expression level, #1 HY 6 hr ([1]; cell type #1, hypoxia 6 hr): 0.65 | mRNA expression level, #1 HY 18 hr ([1]; cell type #1, hypoxia 18 hr): 0.62 | mRNA expression level, #1 NO ([1]; cell type #1, normoxia): 0.79 | mRNA expression level, #2 HY 6 hr ([1]; cell type #2, hypoxia 6 hr): 2.37 | mRNA expression level, #2 HY 18 hr ([1]; cell type #2, hypoxia 18 hr): 2.99 | mRNA expression level, #2 NO ([1]; cell type #2, normoxia): 2.64 | mRNA expression level, #3 HY 6 hr ([1]; cell type #3, hypoxia 6 hr): 1.61 | mRNA expression level, #3 HY 18 hr ([1]; cell type #3, hypoxia 18 hr): 1.77 | mRNA expression level, #3 NO ([1]; cell type #3, normoxia): 2.10 | mRNA expression level, #4 HY 6 hr ([1]; cell type #4, hypoxia 6 hr): 0.40 | mRNA expression level, #4 HY 18 hr ([1]; cell type #4, hypoxia 18 hr): 0.64 | mRNA expression level, #4 NO ([1]; cell type #4, normoxia): 0.61 | mRNA expression level, #5 HY 6 hr ([1]; cell type #5, hypoxia 6 hr): 0.89 | mRNA expression level, #5 NO ([1]; cell type #5, normoxia): 0.42 | mRNA expression level, #6 HY 6 hr ([1]; cell type #6, hypoxia 6 hr): 0.76 | #6 HY 18 hr (mRNA expression level) ([1]; cell type #6, hypoxia 18 hr): 1.08 | mRNA expression level, #6 NO ([1]; cell type #6, normoxia): 0.68 | #7 HY 6 hr (mRNA expression level) ([1]; cell type #7, hypoxia 6 hr): 0.50 | #7 HY 18 hr (mRNA expression level) ([1]; cell type #7, hypoxia 18 hr): 0.32 | #7 NO (mRNA expression level) ([1]; cell type #7, normoxia): 0.41 | #8 HY 6 hr (mRNA expression level) ([1]; cell type #8, hypoxia 6 hr): 0.90 | #8 HY 18 hr (mRNA expression level) ([1]; cell type #8, hypoxia 18 hr): 0.47 | #8 NO (mRNA expression level) ([1]; cell type #8, normoxia): 0.38 | #9 HY 6 hr (mRNA expression level) ([1]; cell type #9, hypoxia 6 hr): 1.11 | #9 HY 18 hr (mRNA expression level) ([1]; cell type #9, hypoxia 18 hr): 1.17 | #9 NO (mRNA expression level) ([1]; cell type #9, normoxia): 1.30 | #10 HY 6 hr (mRNA expression level) ([1]; cell type #10, hypoxia 6 hr): 1.52 | #10 HY 18 hr (mRNA expression level) ([1]; cell type #10, hypoxia 18 hr): 1.39 | #10 NO (mRNA expression level) ([1]; cell type #10, normoxia): 1.29 | #11 HY 6 hr (mRNA expression level) ([1]; cell type #11, hypoxia 6 hr): 1.69 | #11 HY 18 hr (mRNA expression level) ([1]; cell type #11, hypoxia 18 hr): 1.39 | #11 NO (mRNA expression level) ([1]; cell type #11, normoxia): 1.14 | HIGHEST FOLD CHANGE IN HYPOXIA (hr hypoxia + cell type) ([1]; hypoxia/normoxia induction ratio, 6 hr hepatocyte): 2.13 (6 hr hepatocyte) fold | gene expression level on custom gene array, Breast nor H ([2]; Table 18): 2.38 | gene expression level on custom gene array, Breast nor K ([2]; Table 18): 1.19 | gene expression level on custom gene array, Breast tum H ([2]; Table 18): 2.49 | gene expression level on custom gene array, Breast tum K ([2]; Table 18): 1.78 | gene expression level on custom gene array, Ovary nor E ([2]; Table 18): 1.00 | gene expression level on custom gene array, Ovary nor F ([2]; Table 18): 1.38 | gene expression level on custom gene array, Ovary nor G ([2]; Table 18): 0.20 | gene expression level on custom gene array, Ovary tum E ([2]; Table 18): 2.04 | gene expression level on custom gene array, Ovary tum F ([2]; Table 18): 1.30 | gene expression level on custom gene array, Ovary tum G ([2]; Table 18): 1.19

B2: p2A23 (nucleic acid, listed as Homo Sapiens)
DNA: AGAAGAAGCTGGCCAAGGATATGGGAGCAACCACCATGGACCAGAAGTCTCTCTGGGCAGGTGTAGTGGTCTTGCTGCTTCTCCAGGGAGGATCTGCCTACAAACTGGTTTGCTACTTTACCAACTGGTCCCAGGACCGGCAGGAACCAGGAAAATTCACCCCTGAGAATATTGACCCCTTCCTATGCTCTCATCTCATCTATTCATTCGCCAGCATCGAAAACAACAAGGTTATCATCAAGGACAAGAGTGAAGTGATGCTCTACCAGACCATCAACAGTCTCAAAACCAAGAATCCCAAACTGAAAATTCTCTTGTCCATTGGAGGGTACCTGTTTGGTTCCAAAGGGTTCCACCCTATGGTGGATTCTTCTACATCACGCTTGGAATTCATTAACTCCATAATCCTGTTTCTGAGGAACCATAACTTTGATGGACTGGATGTAAGCTGGATCTACCCAGATCAGAAAGAAAACACTCATTTCACTGTGCTGATTCATGAGTTAGCAGAAGCCTTTCAGAAGGACTTCACAAAATCCACCAAGGAAAGGCTTCTCTTGACTGCGGGCGTATCTGCAGGGAGGCAAATGATTGATAACAGCTATCAAGTTGAGAAACTGGCAAAAGATCTGGATTTCATCAACCTCCTGTCCTTTGACTTCCATGGGTCTTGGGAAAAGCCCCTTATCACTGGCCACAACAGCCCTCTGAGCAAGGGGTGGCAGGACAGAGGGCCAAGCTCCTACTACAATGTGGAATATGCTGTGGGGTACTGGATACATAAGGGAATGCCATCAGAGAAGGTGGTCATGGGCATCCCCACATATGGGCACTCCTTCACACTGGCCTCTGCAGAAACCACCGTGGGGGCCCCTGCCTCTGGCCCTGGAGCTGCTGGACCCATCACAGAGTCTTCAGGCTTCCTGGCCTATTATGAGATCTGCCAGTTCCTGAAAGGAGCCAAGATCACGCGCCTCCAGGATCAGCAGGTTCCCTACGCAGTCAAGGGGAACCAGTGGGTGGGCTATGATGATGTGAAGAGTATGGAGACCAAGGTTCAGTTCTTAAAGAATTTAAACCTGGGAGGAGCCATGATCTGGTCTATTGACATGGATGACTTCACTGGCAAATCCTGCAACCAGGGCCCTTACCCTCTTGTCCAAGCAGTCAAGAGAAGCCTTGGCTCCTTGTGAAGGATTAACTTACAGAGAAGCAGGCAAGATGACCTTGCTGCCTGGGGCCTGCTCTCTCCCAGGAATTCTCATGTGGGATTCCCCTTGCCAGGCTGGCCTTTGGATCTCTCTTCCAAGCCTTTCCTGACTTCCTCTTAGATCATAGATTGGACCTGGTTTTGTTTTCCTGCAGCTGTTGACTTGTTGCCCTGAAGTACAATAAAAAAAATTCATTTTGCTCCAGTA
mRNA expression level ([1]; cell type #1, HY (hypoxia) 6 hr): 1.24 | mRNA expression level ([1]; cell type #1, HY (hypoxia) 18 hr): 1.15 | mRNA expression level ([1]; cell type #1, NO (normoxia)): 1.79 | mRNA expression level ([1]; cell type #2, HY (hypoxia) 6 hr): 2.26 | mRNA expression level ([1]; cell type #2, HY (hypoxia) 18 hr): 1.79 | mRNA expression level ([1]; cell type #2, NO (normoxia)): 1.81 | mRNA expression level ([1]; cell type #3, HY (hypoxia) 6 hr): 1.28 | mRNA expression level ([1]; cell type #3, HY (hypoxia) 18 hr): 0.95 | mRNA expression level ([1]; cell type #3, NO (normoxia)): 1.11 | mRNA expression level ([1]; cell type #4, HY (hypoxia) 6 hr): 0.87 | mRNA expression level ([1]; cell type #4, HY (hypoxia) 18 hr): 0.77 | mRNA expression level ([1]; cell type #4, NO (normoxia)): 1.26 | mRNA expression level ([1]; cell type #5, HY (hypoxia) 6 hr): 1.43 | mRNA expression level ([1]; cell type #5, NO (normoxia)): 0.77 | mRNA expression level ([1]; cell type #6, HY (hypoxia) 6 hr): 0.91 | mRNA expression level ([1]; cell type #6, NO (normoxia)): 0.76 | gene expression level on custom gene array, Breast nor H ([2]; Table 19): 1.36 | gene expression level on custom gene array, Breast nor K ([2]; Table 19): 0.91 | gene expression level on custom gene array, Breast tum H ([2]; Table 19): 2.22 | gene expression level on custom gene array, Breast tum K ([2]; Table 19): 2.01 | gene expression level on custom gene array, Ovary nor E ([2]; Table 19): 0.66 | gene expression level on custom gene array, Ovary nor F ([2]; Table 19): 0.48 | gene expression level on custom gene array, Ovary nor G ([2]; Table 19): 4.18 | gene expression level on custom gene array, Ovary tum E ([2]; Table 19): 0.78 | gene expression level on custom gene array, Ovary tum F ([2]; Table 19): 0.61 | gene expression level on custom gene array, Ovary tum G ([2]; Table 19): 0.74
